What all share (test): FRET
The target in data set [1] is T1, XPF-Δnuc (HhH2 domain) (Sulfolobus solfataricus P2, UniProt Q7LXL5 =M+148-233, internal_change).
T1 sequence: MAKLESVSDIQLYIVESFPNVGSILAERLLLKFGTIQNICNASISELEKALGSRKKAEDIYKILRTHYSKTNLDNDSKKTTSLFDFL

The target of data set [2] is T2, XPF-wt (Saccharolobus (Sulfolobus) solfataricus, UniProt Q7LXL5 1-233).
T2 sequence: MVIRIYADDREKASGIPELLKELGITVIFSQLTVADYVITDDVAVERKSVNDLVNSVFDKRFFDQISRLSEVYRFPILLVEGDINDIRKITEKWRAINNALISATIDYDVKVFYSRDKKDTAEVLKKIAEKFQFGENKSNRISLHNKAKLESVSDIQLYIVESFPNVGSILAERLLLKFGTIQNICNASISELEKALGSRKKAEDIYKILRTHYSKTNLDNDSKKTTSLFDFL

Data set [3] deals with T3, XPF-Δnuc (HhH2 domain);PCNA heterotrimer (Sulfolobus solfataricus P2;Sulfolobus …, UniProt Q7LXL5;P57766;Q97Z84;P57765 =M+148-233;1-249;1-245;1-244, internal_change|).
T3 sequence 1: T1 sequence
T3 sequence 2: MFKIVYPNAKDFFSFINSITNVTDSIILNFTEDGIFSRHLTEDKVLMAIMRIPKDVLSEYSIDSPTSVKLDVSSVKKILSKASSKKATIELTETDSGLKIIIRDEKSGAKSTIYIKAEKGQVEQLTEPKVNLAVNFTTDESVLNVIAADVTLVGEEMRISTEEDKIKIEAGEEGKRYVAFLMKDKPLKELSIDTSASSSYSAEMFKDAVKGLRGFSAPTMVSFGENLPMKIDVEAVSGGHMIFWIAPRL
T3 sequence 3: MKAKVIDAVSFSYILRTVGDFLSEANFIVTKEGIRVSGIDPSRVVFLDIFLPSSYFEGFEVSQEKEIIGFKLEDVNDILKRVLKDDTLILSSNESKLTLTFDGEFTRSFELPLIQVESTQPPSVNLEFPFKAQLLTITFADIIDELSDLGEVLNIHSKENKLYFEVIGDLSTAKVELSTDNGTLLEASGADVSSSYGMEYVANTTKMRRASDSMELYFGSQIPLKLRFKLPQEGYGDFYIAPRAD
T3 sequence 4: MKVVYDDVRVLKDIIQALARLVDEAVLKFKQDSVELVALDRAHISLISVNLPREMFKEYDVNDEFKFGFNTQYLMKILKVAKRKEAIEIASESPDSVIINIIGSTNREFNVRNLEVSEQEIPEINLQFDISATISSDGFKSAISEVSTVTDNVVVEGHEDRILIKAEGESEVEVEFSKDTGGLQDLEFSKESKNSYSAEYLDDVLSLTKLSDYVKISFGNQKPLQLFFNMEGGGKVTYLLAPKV

Data set [4] deals with T4, XPF-wt;PCNA heterotrimer (Saccharolobus (Sulfolobus) …, UniProt Q7LXL5;P57766;Q97Z84;P57765 1-233;1-249;1-245;1-244, |).
T4 sequence 1: T2 sequence
T4 sequence 2: T3 sequence 2
T4 sequence 3: T3 sequence 3
T4 sequence 4: T3 sequence 4

Data set [5] addresses T5, XPF-ΔPIP (Δ6 XPF) (Sulfolobus solfataricus, UniProt Q7LXL5 1-227).
T5 sequence: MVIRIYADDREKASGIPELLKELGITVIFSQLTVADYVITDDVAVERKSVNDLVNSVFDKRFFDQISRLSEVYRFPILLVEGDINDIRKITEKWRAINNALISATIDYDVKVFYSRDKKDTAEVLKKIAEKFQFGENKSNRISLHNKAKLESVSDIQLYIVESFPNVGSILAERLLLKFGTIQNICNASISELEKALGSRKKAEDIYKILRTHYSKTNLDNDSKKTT

In data set [6] the target is T5, XPF-ΔPIP (Δ6 XPF). The source holds these as a separate data set.
Data set [7] addresses T2, XPF-wt. This is another data set of the same source.
Data set [8] has as its target T4, XPF-wt;PCNA heterotrimer. This is another data set of the same source.
The target in data set [9] is T1, XPF-Δnuc (HhH2 domain). This is another data set of the same source.
In data set [10] the target is T5, XPF-ΔPIP (Δ6 XPF). This is another data set of the same source.

Consider four molecules from PMC2836553.

Read-outs that look alike come from different tables or passages of the source.

For orientation: Kd means the constant that tells how readily two partners part at equilibrium.

B1: 3' flap, three vectors (global fit) (structured_DNA)
DNA 1: AGCCCGACAGCAGTCAGAGCTTGCTAGGACGGACGGT
DNA 2: ACCGTCCGTCCTAGCAAGCATTTTTTT
DNA 3: TCTGACTGCTGTCGGGCT
modifications: dye positions as in Flap-12, Flap-13 and Flap-23
Take B1: the Kd was found to be 8 ± 1 µM with XPF-Δnuc (HhH2 domain) [1]; 5.3 ± 0.6 µM with XPF-wt [2]; 0.11 ± 0.01 µM in [3]; 0.06 ± 0.01 µM with XPF-wt;PCNA heterotrimer [4]; 3.1 ± 0.5 µM with XPF-ΔPIP (Δ6 XPF) [5].

B2: Flap-12 (structured_DNA)
DNA 1: B1 DNA 1
DNA 2: ACCGTCCGTCCTAGCAAGCATTTTTTT
DNA 3: TCTGACTGCTGTCGGGCT
modifications: internal fluorescein-dT at T9 of B strand; 3' amino modifier on B strand
B2: the Kd in the data set with XPF-ΔPIP (Δ6 XPF) [6] was found to be 1.6 ± 0.6 µM; in the data set with XPF-wt [7] it was 2.6 ± 0.4 µM.

B3: Flap-13 (structured_DNA)
DNA 1: B1 DNA 1
DNA 2: ACCGTCCGTCCTAGCAAGCATTTTTTT
DNA 3: TCTGACTGCTGTCGGGCT
modifications: amino-C6-dT at T9 of B strand; internal fluorescein-dT at T10 of C strand
Regarding B3, the Kd turned out to be 0.06 ± 0.01 µM with XPF-wt;PCNA heterotrimer [8], 8 ± 2 µM with XPF-Δnuc (HhH2 domain) [9] and 9.2 ± 3 µM in the data set with XPF-wt [7].

B4: Flap-23 (structured_DNA)
DNA 1: B1 DNA 1
DNA 2: ACCGTCCGTCCTAGCAAGCATTTTTTT
DNA 3: TCTGACTGCTGTCGGGCT
modifications: 3' Cy3 on B strand; internal fluorescein-dT at T10 of C strand
Consider B4, for which the Kd with XPF-wt;PCNA heterotrimer [8] worked out at 0.05 ± 0.01 µM; with XPF-ΔPIP (Δ6 XPF) [6] it was 1.8 ± 0.3 µM; with XPF-wt [7], 5 ± 0.6 µM; in the data set with XPF-ΔPIP (Δ6 XPF) [10] it was 1.6 ± 0.2 µM.
